Experimental data published in article PMC11832219 (Molecular cell, 2024).

T1: MED17 (human (endogenous in 293-F), UniProt Q9NVC6 1-651)
T1 sequence (looked up): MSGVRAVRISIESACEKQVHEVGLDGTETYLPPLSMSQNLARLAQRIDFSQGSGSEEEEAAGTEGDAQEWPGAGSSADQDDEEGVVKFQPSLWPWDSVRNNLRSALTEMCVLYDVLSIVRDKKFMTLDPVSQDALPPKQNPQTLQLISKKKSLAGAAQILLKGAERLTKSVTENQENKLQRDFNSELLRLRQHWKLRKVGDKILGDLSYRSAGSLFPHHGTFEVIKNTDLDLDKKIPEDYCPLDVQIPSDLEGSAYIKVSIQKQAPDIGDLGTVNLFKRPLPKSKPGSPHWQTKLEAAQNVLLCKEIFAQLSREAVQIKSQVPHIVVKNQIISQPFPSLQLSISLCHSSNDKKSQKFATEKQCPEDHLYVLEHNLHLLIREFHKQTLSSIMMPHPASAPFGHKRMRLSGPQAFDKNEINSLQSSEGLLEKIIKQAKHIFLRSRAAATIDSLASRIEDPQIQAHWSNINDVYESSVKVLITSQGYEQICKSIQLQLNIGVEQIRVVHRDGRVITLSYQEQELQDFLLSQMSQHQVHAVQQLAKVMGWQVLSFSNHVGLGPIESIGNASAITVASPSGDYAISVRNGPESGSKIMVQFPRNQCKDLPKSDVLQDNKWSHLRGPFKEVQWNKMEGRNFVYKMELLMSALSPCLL

B1: MED19 (natural protein, human (endogenous in 293-F), UniProt A0JLT2 1-244, looked up)
chain: MENFTALFGAQADPPPPPTALGFGPGKPPPPPPPPAGGGPGTAPPPTAATAPPGADKSGAGCGPFYLMRELPGSTELTGSTNLITHYNLEQAYNKFCGKKVKEKLSNFLPDLPGMIDLPGSHDNSSLRSLIEKPPILSSSFNPITGTMLAGFRLHTGPLPEQCRLMHIQPPKKKNKHKHKQSRTQDPVPPETPSDSDHKKKKKKKEEDPDRKRKKKEKKKKKNRHSPDHPGMGSSQASSSSSLR
B2: MED8 (natural protein, human (endogenous in 293-F), UniProt Q96G25 1-268, looked up)
chain: MQREEKQLEASLDALLSQVADLKNSLGSFICKLENEYGRLTWPSVLDSFALLSGQLNTLNKVLKHEKTPLFRNQVIIPLVLSPDRDEDLMRQTEGRVPVFSHEVVPDHLRTKPDPEVEEQEKQLTTDAARIGADAAQKQIQSLNKMCSNLLEKISKEERESESGGLRPNKQTFNPTDTNALVAAVAFGKGLSNWRPSGSSGPGQAGQPGAGTILAGTSGLQQVQMAGAPSQQQPMLSGVQMAQAGQPGKMPSGIKTNIKSASMHPYQR
B3: CCNC-6xHis (recombinant CKM subunit) (natural protein, human)
chain: MAGNFWQSSHYLQWILDKQDLLKERQKDLKFLSEEEYWKLQIFFTNVIQALGEHLKLRQQVIATATVYFKRFYARYSLKSIDPVLMAPTCVFLASKVEEFGVVSNTRLIAAATSVLKTRFSYAFPKEFPYRMNHILECEFYLLELMDCCLIVYHPYRPLLQYVQDMGQEDMLLPLAWRIVNDTYRTDLCLLYPPFMIALACLHVACVVQQKDARQWFAELSVDMEKILEIIRVILKLYEQWKNFDERKEMATILSKMPKPKPPPNSEGEQGPNGSQNSSYSQS
B4: CCNC (natural protein, human (endogenous in 293-F), UniProt P24863 1-283, looked up)
chain: B3 chain
B5: Flag-tagged MED13 IDRc (residues 500–1069), expressed in 293-F cells (domain or fragment, human, UniProt Q9UHV7 500-1069, looked up)
chain: SAPDSQVRFSNIRTNDVAKTPQMHGTEMANSPQPPPLSPHPCDVVDEGVTKTPSTPQSQHFYQMPTPDPLVPSKPMEDRIDSLSQSFPPQYQEAVEPTVYVGTAVNLEEDEANIAWKYYKFPKKKDVEFLPPQLPSDKFKDDPVGPFGQESVTSVTELMVQCKKPLKVSDELVQQYQIKNQCLSAIASDAEQEPKIDPYAFVEGDEEFLFPDKKDRQNSEREAGKKHKVEDGTSSVTVLSHEEDAMSLFSPSIKQDAPRPTSHARPPSTSLIYDSDLAVSYTDLDNLFNSDEDELTPGSKKSANGSDDKASCKESKTGNLDPLSCISTADLHKMYPTPPSLEQHIMGFSPMNMNNKEYGSMDTTPGGTVLEGNSSSIGAQFKIEVDEGFCSPKPSEIKDFSYVYKPENCQILVGCSMFAPLKTLPSQYLPPIKLPEECIYRQSWTVGKLELLSSGPSMPFIKEGDGSNMDQEYGTAYTPQTHTSFGMPPSSAPPSNSGAGILPSPSTPRFPTPRTPRTPRTPRGAGGPASAQGSVKYENSDLYSPASTPSTCRPLNSVEPATVPSIPEAH
B6: MED10 (natural protein, human (endogenous in 293-F), UniProt Q9BTT4 1-135, looked up)
chain: MAEKFDHLEEHLEKFVENIRQLGIIVSDFQPSSQAGLNQKLNFIVTGLQDIDKCRQQLHDITVPLEVFEYIDQGRNPQLYTKECLERALAKNEQVKGKIDTMKKFKSLLIQELSKVFPEDMAKYRSIRGEDHPPS
B7: MED6 (natural protein, human (endogenous in 293-F), UniProt O75586 1-246, looked up)
chain: MAAVDIRDNLLGISWVDSSWIPILNSGSVLDYFSERSNPFYDRTCNNEVVKMQRLTLEHLNQMVGIEYILLHAQEPILFIIRKQQRQSPAQVIPLADYYIIAGVIYQAPDLGSVINSRVLTAVHGIQSAFDEAMSYCRYHPSKGYWWHFKDHEEQDKVRPKAKRKEEPSSIFQRQRVDALLLDLRQKFPPKFVQLKPGEKPVPVDQTKKEAEPIPETVKPEEKETTKNVQQTVSAKGPPEKRMRLQ
B8: MED7 (natural protein, human (endogenous in 293-F), UniProt O43513 1-233, looked up)
chain: MGEPQQVSALPPPPMQYIKEYTDENIQEGLAPKPPPPIKDSYMMFGNQFQCDDLIIRPLESQGIERLHPMQFDHKKELRKLNMSILINFLDLLDILIRSPGSIKREEKLEDLKLLFVHVHHLINEYRPHQARETLRVMMEVQKRQRLETAERFQKHLERVIEMIQNCLASLPDDLPHSEAGMRVKTEPMDADDSNNCTGQNEHQRENSGHRRDQIIEKDAALCVLIDEMNERP
B9: MED21 (natural protein, human (endogenous in 293-F), UniProt Q13503 1-144, looked up)
chain: MADRLTQLQDAVNSLADQFCNAIGVLQQCGPPASFNNIQTAINKDQPANPTEEYAQLFAALIARTAKDIDVLIDSLPSEESTAALQAASLYKLEEENHEAATCLEDVVYRGDMLLEKIQSALADIAQSQLKTRSGTHSQSLPDS
B10: MED31 (natural protein, human (endogenous in 293-F), UniProt Q9Y3C7 1-131, looked up)
chain: MAAAVAMETDDAGNRLRFQLELEFVQCLANPNYLNFLAQRGYFKDKAFVNYLKYLLYWKDPEYAKYLKYPQCLHMLELLQYEHFRKELVNAQCAKFIDEQQILHWQHYSRKRMRLQQALAEQQQQNNTSGK

Tests used:
MED12 = MED12 (human (endogenous in 293-F), UniProt Q93074 1-2177); assay: cross-linking
MED13 [1] = target: T2, MED13 (human (endogenous in 293-F), UniProt Q9UHV7 1-2174); assay: cryo-EM structure
[2] = target: B5; assay: cryo-EM structure
[3] = target: CDK8-Flag (recombinant CKM subunit) (human, UniProt P49336 1-464); assay: cryo-EM structure
MED14 = MED14 (human (endogenous in 293-F), UniProt O60244 1-1454); assay: cryo-EM structure
MED17 = target: T1, MED17; assay: cryo-EM structure
MED13 [4] = target: T2, MED13; assay: cross-linking
MED12L = MED12L (human (endogenous in 293-F), UniProt Q86YW9 1-2145); assay: cross-linking

T2 sequence (Q9UHV7 whole entry): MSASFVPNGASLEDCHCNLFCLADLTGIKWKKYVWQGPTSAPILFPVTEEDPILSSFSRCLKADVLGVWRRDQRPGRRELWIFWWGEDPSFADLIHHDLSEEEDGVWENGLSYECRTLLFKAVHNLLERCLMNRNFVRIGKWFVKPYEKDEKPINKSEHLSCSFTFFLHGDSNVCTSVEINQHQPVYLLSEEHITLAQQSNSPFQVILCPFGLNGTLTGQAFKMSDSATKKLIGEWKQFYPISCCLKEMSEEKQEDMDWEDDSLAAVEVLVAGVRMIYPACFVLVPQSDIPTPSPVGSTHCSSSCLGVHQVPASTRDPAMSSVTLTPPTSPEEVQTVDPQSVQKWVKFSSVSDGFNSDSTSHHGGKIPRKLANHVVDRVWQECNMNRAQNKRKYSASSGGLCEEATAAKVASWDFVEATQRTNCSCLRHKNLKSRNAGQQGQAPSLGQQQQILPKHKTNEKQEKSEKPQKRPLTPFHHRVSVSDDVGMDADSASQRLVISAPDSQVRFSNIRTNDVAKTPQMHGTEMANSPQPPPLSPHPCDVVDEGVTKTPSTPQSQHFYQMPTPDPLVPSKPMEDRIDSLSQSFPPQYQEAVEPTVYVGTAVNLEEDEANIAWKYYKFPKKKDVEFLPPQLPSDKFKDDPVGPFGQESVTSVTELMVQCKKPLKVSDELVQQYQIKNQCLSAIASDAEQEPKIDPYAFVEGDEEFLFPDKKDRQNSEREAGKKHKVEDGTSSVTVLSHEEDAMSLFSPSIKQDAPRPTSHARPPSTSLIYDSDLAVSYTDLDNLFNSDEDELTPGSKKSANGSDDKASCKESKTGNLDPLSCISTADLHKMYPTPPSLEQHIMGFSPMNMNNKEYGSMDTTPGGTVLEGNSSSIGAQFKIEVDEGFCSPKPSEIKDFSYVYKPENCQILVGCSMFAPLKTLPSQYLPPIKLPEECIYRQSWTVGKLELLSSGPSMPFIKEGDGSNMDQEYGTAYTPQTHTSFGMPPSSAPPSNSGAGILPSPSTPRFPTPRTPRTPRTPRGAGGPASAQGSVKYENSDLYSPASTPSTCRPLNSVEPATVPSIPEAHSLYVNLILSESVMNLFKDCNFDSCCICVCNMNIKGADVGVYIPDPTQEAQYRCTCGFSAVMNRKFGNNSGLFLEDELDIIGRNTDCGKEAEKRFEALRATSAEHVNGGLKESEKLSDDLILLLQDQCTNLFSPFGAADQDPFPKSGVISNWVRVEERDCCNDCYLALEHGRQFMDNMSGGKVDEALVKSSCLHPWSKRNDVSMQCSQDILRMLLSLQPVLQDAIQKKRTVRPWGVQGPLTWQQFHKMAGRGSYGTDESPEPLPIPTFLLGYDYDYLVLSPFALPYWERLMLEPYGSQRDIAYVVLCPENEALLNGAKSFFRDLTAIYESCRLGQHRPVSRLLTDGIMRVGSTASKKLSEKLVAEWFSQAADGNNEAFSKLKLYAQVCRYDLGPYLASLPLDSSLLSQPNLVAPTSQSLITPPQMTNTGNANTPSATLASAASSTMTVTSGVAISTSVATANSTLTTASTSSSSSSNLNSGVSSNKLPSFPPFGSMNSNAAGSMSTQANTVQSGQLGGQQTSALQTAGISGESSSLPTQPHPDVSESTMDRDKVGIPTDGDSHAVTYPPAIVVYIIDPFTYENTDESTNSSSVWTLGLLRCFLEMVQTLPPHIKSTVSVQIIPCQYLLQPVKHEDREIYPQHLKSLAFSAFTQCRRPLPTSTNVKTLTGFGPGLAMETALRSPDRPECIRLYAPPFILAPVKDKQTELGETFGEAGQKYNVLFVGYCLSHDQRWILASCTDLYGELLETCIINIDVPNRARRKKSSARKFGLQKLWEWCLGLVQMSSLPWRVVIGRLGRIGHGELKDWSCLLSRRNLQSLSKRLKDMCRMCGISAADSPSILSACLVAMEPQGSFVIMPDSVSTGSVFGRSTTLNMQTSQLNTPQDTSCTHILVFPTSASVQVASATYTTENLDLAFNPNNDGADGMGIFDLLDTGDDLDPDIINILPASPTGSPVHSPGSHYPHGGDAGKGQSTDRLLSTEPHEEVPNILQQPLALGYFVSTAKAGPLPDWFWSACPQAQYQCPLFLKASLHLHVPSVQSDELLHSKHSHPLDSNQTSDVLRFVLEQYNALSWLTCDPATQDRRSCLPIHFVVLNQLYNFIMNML
Chain of MED12 (Q93074 whole entry): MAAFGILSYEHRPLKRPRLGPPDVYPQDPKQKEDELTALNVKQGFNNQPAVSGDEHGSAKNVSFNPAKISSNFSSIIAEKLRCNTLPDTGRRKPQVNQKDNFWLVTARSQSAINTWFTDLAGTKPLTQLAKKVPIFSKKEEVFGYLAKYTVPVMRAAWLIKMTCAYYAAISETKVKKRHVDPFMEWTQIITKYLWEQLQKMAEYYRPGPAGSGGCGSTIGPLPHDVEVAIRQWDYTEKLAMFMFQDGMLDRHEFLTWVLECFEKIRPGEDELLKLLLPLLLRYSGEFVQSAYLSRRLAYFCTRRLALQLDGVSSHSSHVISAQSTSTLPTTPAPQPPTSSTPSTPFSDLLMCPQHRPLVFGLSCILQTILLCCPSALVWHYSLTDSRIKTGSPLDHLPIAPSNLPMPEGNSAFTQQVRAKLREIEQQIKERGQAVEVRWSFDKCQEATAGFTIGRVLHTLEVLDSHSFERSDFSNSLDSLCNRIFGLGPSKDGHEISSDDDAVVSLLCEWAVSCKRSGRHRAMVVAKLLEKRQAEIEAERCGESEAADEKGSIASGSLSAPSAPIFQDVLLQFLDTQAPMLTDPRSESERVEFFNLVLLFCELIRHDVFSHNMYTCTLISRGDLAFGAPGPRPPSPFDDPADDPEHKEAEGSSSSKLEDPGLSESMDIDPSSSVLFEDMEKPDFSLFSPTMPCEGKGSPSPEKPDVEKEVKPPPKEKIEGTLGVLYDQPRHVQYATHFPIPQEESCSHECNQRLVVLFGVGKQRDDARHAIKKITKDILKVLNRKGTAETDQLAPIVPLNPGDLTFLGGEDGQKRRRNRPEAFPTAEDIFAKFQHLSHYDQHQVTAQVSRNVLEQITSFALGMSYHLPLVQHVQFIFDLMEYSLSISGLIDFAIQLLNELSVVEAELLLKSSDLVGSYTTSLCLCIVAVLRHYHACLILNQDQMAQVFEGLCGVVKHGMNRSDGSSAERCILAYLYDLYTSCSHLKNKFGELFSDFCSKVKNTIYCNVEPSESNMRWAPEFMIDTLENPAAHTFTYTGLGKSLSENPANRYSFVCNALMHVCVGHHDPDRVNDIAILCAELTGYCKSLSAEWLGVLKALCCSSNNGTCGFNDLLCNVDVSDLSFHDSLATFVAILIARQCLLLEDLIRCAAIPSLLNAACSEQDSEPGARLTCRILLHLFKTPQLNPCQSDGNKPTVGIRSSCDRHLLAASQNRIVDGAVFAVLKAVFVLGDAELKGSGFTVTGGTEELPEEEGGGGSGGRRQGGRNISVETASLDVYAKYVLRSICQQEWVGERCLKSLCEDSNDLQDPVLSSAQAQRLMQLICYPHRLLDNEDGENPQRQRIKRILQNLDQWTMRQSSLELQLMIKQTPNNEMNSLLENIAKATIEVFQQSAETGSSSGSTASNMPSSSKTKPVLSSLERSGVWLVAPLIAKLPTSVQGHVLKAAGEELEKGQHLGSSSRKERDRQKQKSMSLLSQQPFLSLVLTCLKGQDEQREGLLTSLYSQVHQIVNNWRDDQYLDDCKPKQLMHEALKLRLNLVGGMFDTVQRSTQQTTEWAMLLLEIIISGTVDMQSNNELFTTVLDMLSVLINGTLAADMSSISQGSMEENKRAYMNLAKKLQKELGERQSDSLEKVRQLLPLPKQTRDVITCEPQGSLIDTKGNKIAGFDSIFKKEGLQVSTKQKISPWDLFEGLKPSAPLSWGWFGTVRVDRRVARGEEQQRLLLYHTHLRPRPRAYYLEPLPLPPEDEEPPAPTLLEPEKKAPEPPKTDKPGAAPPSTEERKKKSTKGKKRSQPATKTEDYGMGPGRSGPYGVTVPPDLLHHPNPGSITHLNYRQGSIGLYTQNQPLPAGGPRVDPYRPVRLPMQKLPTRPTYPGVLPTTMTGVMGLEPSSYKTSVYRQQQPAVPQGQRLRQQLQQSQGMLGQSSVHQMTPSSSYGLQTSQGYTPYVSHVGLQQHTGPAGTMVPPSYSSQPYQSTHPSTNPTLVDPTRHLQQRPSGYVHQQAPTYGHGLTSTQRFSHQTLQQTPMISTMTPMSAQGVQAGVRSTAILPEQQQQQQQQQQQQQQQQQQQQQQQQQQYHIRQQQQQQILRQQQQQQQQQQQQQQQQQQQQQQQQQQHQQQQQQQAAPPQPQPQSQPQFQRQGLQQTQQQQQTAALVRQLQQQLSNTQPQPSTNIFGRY
Chain of CDK8-Flag (recombinant CKM subunit) (P49336 whole entry): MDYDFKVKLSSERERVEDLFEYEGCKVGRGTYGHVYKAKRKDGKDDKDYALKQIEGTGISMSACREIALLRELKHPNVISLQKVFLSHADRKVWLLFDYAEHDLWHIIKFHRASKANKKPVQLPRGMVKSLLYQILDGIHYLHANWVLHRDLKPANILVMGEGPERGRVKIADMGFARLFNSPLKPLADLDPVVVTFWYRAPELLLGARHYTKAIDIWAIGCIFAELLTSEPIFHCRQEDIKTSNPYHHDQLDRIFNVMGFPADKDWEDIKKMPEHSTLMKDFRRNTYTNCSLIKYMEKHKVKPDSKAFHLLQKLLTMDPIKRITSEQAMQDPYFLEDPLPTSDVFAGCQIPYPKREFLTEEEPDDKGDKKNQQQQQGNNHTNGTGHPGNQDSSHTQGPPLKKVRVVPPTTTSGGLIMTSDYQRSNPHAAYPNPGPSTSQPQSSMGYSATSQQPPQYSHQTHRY

Row | Binder | binding result (MED12) | binding result [2] | other results
1 | B1 | binds | – | binding result (MED13 [1]): binds
2 | B2 | – | binds | –
3 | B3 | – | – | binding result [3]: binds
4 | B4 | binds | – | –
5 | B5 | – | – | binding result (MED14): binds; binding result (MED17): binds
6 | B6 | binds | – | binding result (MED13 [4]): binds; binding result (MED12L): binds
7 | B7 | – | binds | –
8 | B8 | – | binds | –
9 | B9 | – | binds | –
10 | B10 | – | – | binding result (MED13 [4]): binds
